# Laboratory results published in article PMC5177890, “Controlled Orientation of Active Sites in a Nanostructured Multienzyme Complex” (Scientific Reports, 2016).
# B1: Formate dehydrogenase from Thiobacillus sp. KNK65MA, wild type (enzyme)
# chain: MAKILCVLYDDPVDGYPKTYARDDLPKIDHYPGGQTLPTPKAIDFTPGQLLGSVSGELGLRKYLEANGHTFVVTSDKDGPDSVFEKELVDADVVISQPFWPAYLTPERIAKAKNLKLALTAGIGSDHVDLQSAIDRGITVAEVTYCNSISVAEHVVMMILGLVRNYIPSHDWARKGGWNIADCVEHSYDLEGMTVGSVAAGRIGLAVLRRLAPFDVKLHYTDRHRLPEAVEKELGLVWHDTREDMYPHCDVVTLNVPLHPETEHMINDETLKLFKRGAYIVNTARGKLADRDAIVRAIESGQLAGYAGDVWFPQPAPKDHPWRTMKWEGMTPHISGTSLSAQARYAAGTREILECFFEGRPIRDEYLIVQGGALAGTGAHSYSKGNATGGSEEAAKFKKAG
# notes: NAD-dependent formate dehydrogenase of Thiobacillus sp; KNK65MA; fdh gene PCR amplified from pET-23b(+)-TsFDH and subcloned into pQE80; 45 kDa for a single subunit; also called FDH; FDH-WT; source: E. coli TOP10, purified (Ni-NTA agarose)
# Target: the molecule itself
# Experiment: SEC; size exclusion chromatography of the enzyme in solution (Supplementary Fig. 1); conditions not told in the main text
protein,measurement,value
B1,stoichiometry N,2
